# Experimental data: paper PMC2697320, “Identification of the high affinity binding site in the Streptococcus intermedius toxin intermedilysin for its membrane receptor, the human complement regulator CD59” (Molecular Immunology, 2009)
# Biological target: Human CD59 on human erythrocytes (human (endogenous in human erythrocytes)) (UniProt P13987)
# Sequence (P13987 26-102): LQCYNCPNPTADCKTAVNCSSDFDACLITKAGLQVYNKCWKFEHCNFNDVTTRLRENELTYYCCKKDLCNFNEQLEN
substance,measurement,value
ILY LI > TV mutant (natural protein),fold increase of the dose required for 50% hemolysis of human erythrocytes against native ILY,2.5 fold
